From patent US9931373B2, “Method of reducing cancer cell proliferation by administering recombinant alpha-fetoprotein” (priority 2005, dated 2018)

Columns and labels:
[1] = system: Human mesenchymal stromal/stem adipose tissue cells (ATSC); experiment: Proliferation of adipose tissue stem cells (ATSC), [H3]-thymidine incorporation; format: cell-based; conditions: for Cell proliferation (cpm × 103): 24 h
Source text: Human mesenchymal stromal/stem adipose tissue cells (ATSC) were isolated either from liposuction aspirates or from products of the fat deposit removed during the cosmetic surgery. The tissue was mechanically split to the fragments of several cubic millimeters. A suspension of tissue was mixed with type I Collagenase (200 U/ml) and Dispase (30 U/ml) (Sigma) in solution of 50% DMEM (Sigma, D-5523), 50% F12 (Sigma, N-6760), 1% BSA (Sigma), /100 U/ml penicillin and 100 U/ml ampicilline in 1:1 v/v and incubated for 1 hr at 37° C. to with mixing, following by filtering through 40 μm membrane (BD Falcon). The suspension was centrifuged 5 min at 200 g, upper layer was removed, and pellet consisting of separate non-adipose cells was treated by erythrocyte lysis buffer (154 mM NH4Cl, 10 mM KHCO3, 0.1 mM EDTA) during 5 min at 37° C., following by 5 min centrifugation at 300 g. Cell pellet was resuspended in DMEM/10% FBS. Resulting cells were cultured in the same medium in plastic flasks in CO2 incubator (37° C., 5% CO2). When reaching confluence, the cells were passaged by treatment the cell monolayer with 0.25% trypsin/0.02% EDTA. For the purpose of long-time storage, the cells were frozen in the culture medium supplemented by 15-20% FBS and 10% DMSO. Adipose cells were cultivated in DMEM/F12 medium with the addition 10% FBS 0.1% ECGF on 60 mm Petri dishes at 37° C. and 5% CO2. For the passages 0.25% trypsin/0.02% EDTA. solution was used. For the purpose of long-time storage, the cells were frozen in the culture medium supplemented by 15-20% FBS and 10% DMSO. Adipose tissue stem cells (ATSC) were cultivated in DMEM/F12 medium with the addition 10% FBS 0.1% ECGF on 60 mm Petri dishes at 37° C. and 5% CO2. For the passages 0.25% trypsin/0.02% EDTA solution was used. For the purpose of long-time storage, the cells were frozen in the culture medium supplemented by 15-20% FBS and 10% DMSO.
Human donor ATSC were isolated and cultivated as described above, the cells from 2-4 passage were taken in the study. ADSC (3×10^4) were plated in flat-bottom 96-well plates (Costar, USA) in complete medium with 10% FCS, after 18 h the medium was changed onto the medium with 5% human sera and cells were treated with increasing amounts of rhAFP (0-500 μg/ml) for 24 h. The direct effect of rhAFP on proliferation of ATSC was measured by [H^3]-thymidine incorporation. For the last 4 h 1 μCi of methyl-[H^3]-thymidine was added to the cultures.

[2] = system: Human Umbilical Vein Endothelial Cells (HUVEC); experiment: Wound healing assay with HUVEC; format: cell-based; conditions: serum-free medium, 50 μg/ml rhAFP, 18 hrs; HSA as control
Procedure: HUVECs were plated onto the gelatin-coated 24-well plates, and grown for confluence. Than monolayers were wounded by scrapper, and cells were incubated in the serum-free medium with 0.1-0.5 mg/ml of rhAFP or HSA.
To test ability of rhAFP to stimulate regeneration of damaged tissue we established classical wound healing assay with normal Human Umbilical Vein Endothelial Cells (HUVEC) obtained after surgical resection of human vein tissue. HUVEC cells were cultivated in DMEM/F12 medium with addition 10% FBS and 0.1% ECGF on the 60 mm Petri dishes at 37° C. at 5% CO2 atmosphere. HUVECs were plated on gelatin-coated 24-well plates, and grown for confluence, than monolayers were wounded and cells were incubated in serum-free medium with 50 μg/ml rhAFP or 50 μg/ml HSA, healing was observed after 18 hrs incubation. Images of wound healing were taken after staining with crystal violet.

B1: rhAFP: recombinant human alpha-fetoprotein secreted by yeast Saccharomyces cerevisiae YBS723/pKX, glycosylated, mature human AFP sequence SEQ ID NO:2 (protein, listed as Homo sapiens)
chain: TLHRNEYGIASILDSYQCTAEISLADLATIFFAQFVQEATYKEVSKMVKDALTAIEKPTGDEQSSGCLENQLPAFLEELCHEKEILEKYGHSDCCSQSEEGRHNCFLAHKKPTPASIPLFQVPEPVTSCEAYEEDRETFMNKFIYEIARRHPFLYAPTILLWAARYDKIIPSCCKAENAVECFQTKAATVTKELRESSLLNQHACAVMKNFGTRTFQAITVTKLSQKFTKVNFTEIQKLVLDVAHVHEHCCRGDVLDCLQDGEKIMSYICSQQDTLSNKITECCKLTTLERGQCIIHAENDEKPEGLSPNLNRFLGDRDFNQFSSGEKNIFLASFVHEYSRRHPQLAVSVILRVAKGYQELLEKCFQTENPLECQDKGEEELQKYIQESQALAKRSCGLFQKLGEYYLQNAFLVAYTKKAPQLTSSELMAITRKMAATAATCCQLSEDKLLACGEGAADIIIGHLCIRHEMTPVNPGVGQCCTSSYANRRPCFSSLVVDETYVPPAFSDDKFIFHKDLCQAQGVALQTMKQEFLINLVKQKPQITEEQLEAVIADFSGLLEKCCQGQEQEVCFAEEGQKLISKTRAALGV
modifications: yeast glycosylation
- Maximum effect on proliferation of ATSC ([1]; 300 μg/ml of rhAFP, compared to untreated control): 50%
- Cell proliferation, change versus control ([1]; AFP 0.100 mg/ml, 2 passage): (+16%)
- Cell proliferation (cpm × 103) ([1]; AFP 0.100 mg/ml, 2 passage, control 17.8 ± 6.4): 20.7 ± 0.7 cpm × 103
- Cell proliferation, change versus control ([1]; AFP 0.100 mg/ml, 3 passage): (+7%)
- Cell proliferation (cpm × 103) ([1]; AFP 0.100 mg/ml, 3 passage, control 16.5 ± 1.5): 17.7 ± 5.3 cpm × 103
- Cell proliferation, change versus control ([1]; AFP 0.100 mg/ml, 4 passage): (+20%)
- Cell proliferation (cpm × 103) ([1]; AFP 0.100 mg/ml, 4 passage, control 0.83 ± 0.1): 1.0 ± 0.08 cpm × 103
- Cell proliferation, change versus control ([1]; AFP 0.300 mg/ml, 2 passage): (+44%)
- Cell proliferation (cpm × 103) ([1]; AFP 0.300 mg/ml, 2 passage, control 17.8 ± 6.4): 25.8 ± 4.1 cpm × 103
- Cell proliferation, change versus control ([1]; AFP 0.300 mg/ml, 3 passage): (+35%)
- Cell proliferation (cpm × 103) ([1]; AFP 0.300 mg/ml, 3 passage, control 16.5 ± 1.5): 22.4 ± 1.4 cpm × 103
- Cell proliferation, change versus control ([1]; AFP 0.300 mg/ml, 4 passage): (+50%)
- Cell proliferation (cpm × 103) ([1]; AFP 0.300 mg/ml, 4 passage, control 0.83 ± 0.1): 1.2 ± 0.24 cpm × 103
- migration of HUVEC to the wounded area [2]: significantly activated the migration of HUVEC to the wounded area
